The results in this text go back to patent publication US20060029947A1 (University of Texas, published 2006).

The Kd is the concentration at which binding is half-saturated. A higher Kd goes with weaker binding. By koff is commonly meant a measure of how fast the partners let go of each other. A high value points to a short-lived complex. Broadly, the kon is the second-order rate constant of association. A lower kon goes with slow association.

The experiment addresses Bacillus anthracis protective antigen (PA) (Bacillus anthracis, UniProt P13423 30-764).

Bacillus anthracis protective antigen (PA), sequence (P13423 30-764 limits assumed): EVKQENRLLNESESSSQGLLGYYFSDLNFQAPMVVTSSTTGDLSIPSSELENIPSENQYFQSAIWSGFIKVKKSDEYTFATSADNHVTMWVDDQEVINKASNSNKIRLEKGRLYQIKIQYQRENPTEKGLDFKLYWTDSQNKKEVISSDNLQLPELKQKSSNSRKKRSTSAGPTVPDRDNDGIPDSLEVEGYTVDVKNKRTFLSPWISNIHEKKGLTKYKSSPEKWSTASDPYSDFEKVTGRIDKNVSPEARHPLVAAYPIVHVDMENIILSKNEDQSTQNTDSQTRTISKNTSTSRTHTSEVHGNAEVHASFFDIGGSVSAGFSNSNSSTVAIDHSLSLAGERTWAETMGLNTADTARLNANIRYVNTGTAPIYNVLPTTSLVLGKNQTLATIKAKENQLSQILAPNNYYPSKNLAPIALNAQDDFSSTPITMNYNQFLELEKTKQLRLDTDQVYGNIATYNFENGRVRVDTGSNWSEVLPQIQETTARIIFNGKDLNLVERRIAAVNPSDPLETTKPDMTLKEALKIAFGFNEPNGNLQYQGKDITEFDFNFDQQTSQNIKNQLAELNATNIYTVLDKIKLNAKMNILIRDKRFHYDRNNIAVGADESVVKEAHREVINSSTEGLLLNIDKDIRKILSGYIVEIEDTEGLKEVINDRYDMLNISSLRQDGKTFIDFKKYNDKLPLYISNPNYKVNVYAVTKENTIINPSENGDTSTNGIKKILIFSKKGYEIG

B1: M18 with the Q55L substitution, scAb (scFv)
chain: DIQMTQTTSSLSASLGDRVTVSCRASQDIRNYLNWYQQKPDGTVKFLIYYTSRLLPGVPSRFSGSGSGTDYSLTINNLEQEDIGTYFCQQGNTPPWTFGGGTKLEIKRGGGGSDGGGSGGGGSGGGGSEVQLQQSGPELVKPGASVKISCKDSGYAFNSSWMNWVKQRPGQGLEWIGRIYPGDGDSNYNGKFEGKAILTADKSSSTAYMQLSSLTSVDSAVYFCARSGLLRYAMDYWGQGTSVTVSS
In turn, B1 registered a Kd of 0.021 nM, a koff of 2.4e-05 s⁻¹ and a kon of 1.1e+06 M⁻¹ s⁻¹.
